In the DeepSol protein solubility set:

Assay: soluble on expression in E. coli; label from the status in PepcDB or PDB records

Sequence	soluble on expression in E. coli
MKSDWSTDFFHQSQTPNPYPPIVQQQQQPPHTSSSFFNTNHQLNSHYSSPIHQPPTSLHQPIPMMQNQFKASPPQSDQETAPTTPGSGSGGQMKGERCVGCGSESAIRVHYGASSCHGCKAFFRRSVFEGRVYMCSADNHCDITNESRNRCRACRLRNCLEGGMNPKHVREERSKIERMPGNTCTVSAANGVSHSSSAASASPEHKFSFSLSTIAPSTSTGSFSSGSQPAPIESTNSSGSEAEVLDRKLIQENQLTLFMVALEKQTEQLTDDDVKDNDVMGAWSRDITLTFGLQHPQMVIKRLPLKYSCDRIMEAADLYLSWYRSFVFAADWAMGIPEFRVLPLADQTTLFKQNFMAFGWITFAYKCFELKQHLTGMPLGNGAYIPYNDEDQKKLPERWAQTYGVVCRKLIDLIVKAMIELQITEEEYCLIKTISLFQQDCILSEAGQGICSRMRDRLLDALSAHIEKRYPYHTTSQRMTRALKISLMLPSFSHIGQVESTLITQLTAADLHQLSGVPMEICTAQTTL	not soluble
MKSHERGRVILVIDDTDCGRVAAERLVFMARAGFRGDVFVVFGKDIEISPIASYEKEMKIYTSLRVKASKFVEFYRERLEEAGLEVKQVKIILGNVSEEVLRLEKLLNPDLIVFGMEKRGFLKRLLRGDPYKEIIYETKAPVMVCKAGYERKDVDYEKIRCAKCVMG	not soluble
MKSIYIILVNYNNFQDTIECVKSLRKIKNYHNYKVIIVDNDSKNDSVSKIKSFLQDCLLIESKKNLGFAGGNNLGIKYAMKHNADYVLLLNNDTVVENDFLDKLLEVHENYGNVGIVGGKIYYYYDKNRIWYAGGKINKFTGKTKHIGVNEIDEGQYNNISITGYVTGCMMLISKGAIEKCGVMDEKYFLYYEETDWNVRIKNAGFKIMYTPLSKIYHKVSSTTGKSDLIMSYYYDRNRYYFVFKNFNWVCKLSVTLYILVRLYAKLFKAIAINDVKRKHLIEYTIISIKNNIMGEIRV	not soluble
MKSLDDLDFDNRFARLGGAFSTEVLPDPIAEPRLVVASPAALALLDLPAETSDEALFAELFGGHKLWSEAEPRAMVYSGHQFGSYNPRLGDGRGLLLGEVINQAGEHWDLHLKGAGQTPYSRMGDGRAVLRSSIREFLASEALPALGIPSSRALCVIGSSTPVWREKKESAATLLRLAPSHVRFGHFEYFYYTRQHDQLKQLAAFVLEHHFADCNAAERPYAAMFRQVVERNAELIARWQAYGFCHGVMNTDNMSILGITFDYGPYAFLDDFDANHICNHSDDAGRYSFSNQVPIAHWNLAALAQALTPLVEVDELRASLDLFLPLYQAHYLDLMRRRLGLGVAAENDHALVQELLQRMQGSAVDYSLFFRRLGEETPERALASLRDDFVDREAFDRWAEAYRRRVEEEGGDQESRRRRMHAVNPLYVLRNYLAQQAIEAAEQGDYTEVRLLHQVLSRPFEEQPGMERFTRRPPDWGRHLEISCSS	not soluble
MKTALESLRNASALYNEKLVKLMKSFGMTIAEHRLLLLIESGLDTQEKISLATKLDTSTLSRQLKSAVRKELLDKLATGRDKRQLIYSVTEKGQSDLKGIAAELARIDANVFSDWNQNDRALLDQLLDKLEKSI	not soluble
MKTGPLNESELEWLDDILTKYNTDHAILDVAELDGLLTAVLSSPQEIEPEQWLVAVWGGADYVPRWASEKEMTRFMNLAFQHMADTAERLNEFPEQFEPLFGLREVDGSELTIVEEWCFGYMRGVALSDWSTLPDSLKPALEAIALHGTEENFERVEKMSPEAFEESVDAIRLAALDLHAYWMAHPQEKAVQQPIKAEEKPGRNDPCPCGSGKKFKQCCLH	not soluble
MKTIAIRDVTGIMEPLPGFSVVRTDGSDGQRSIKLNGYKTTNNQYGYQFVKNENTVVYDDEEYIIKTHRERTYRKGVGVEATAIHRIFDDLRNNYIYDEKTGTLRLDAMLSFALEGSGYTFEIDTTDLPASVRVENFGWNNSLALFRDILEKFGAEFDYKGKKIYVAKKFGIQRDEPFLRYRFNVKDPEKEIDTSSFATYIRGYGKKDDKGNYLFAEYTSPLAKIYGIKHADPVKDERYTDKDSLLAAMKKQLNDNIDISLTFTAIELESMGLRDIKKGDYVWCVIEPFDLNVQLRAVSREDYSDETKSPTFTFGTITKKASDIIASFNTTKKAVDKVIDTSTGKIKDSAIDTTGLTTKSEFQSHVDNKIVHITAEERAAWNAASNSIGDLTFITWSTPTLKNGWIQYTANTESYPIQYGKDAIGTVNIRGAVSSGVVGSSTPVFTLPAGFRPPFPHLFIGVSSVATDGTPQYFRGIIKTNGDVCIENISNKDTPNQFIGIYTQFKAI	soluble
